The values below are quoted from earlier work in US20230076733A1, “Combination Therapy” (AGENCY FOR SCIENCE, TECHNOLOGY AND RESEARCH, priority 2020, published 2023).

The conditions of the data set: phase 3 trials, cited from earlier work.

B1: Figitumumab (antibody, chains of the INN, looked up)
heavy: EVQLLESGGGLVQPGGSLRLSCTASGFTFSSYAMNWVRQAPGKGLEWVSAISGSGGTTFYADSVKGRFTISRDNSRTTLYLQMNSLRAEDTAVYYCAKDLGWSDSYYYYYGMDVWGQGTTVTVSSASTKGPSVFPLAPCSRSTSESTAALGCLVKDYFPEPVTVSWNSGALTSGVHTFPAVLQSSGLYSLSSVVTVPSSNFGTQTYTCNVDHKPSNTKVDKTVERKCCVECPPCPAPPVAGPSVFLFPPKPKDTLMISRTPEVTCVVVDVSHEDPEVQFNWYVDGVEVHNAKTKPREEQFNSTFRVVSVLTVVHQDWLNGKEYKCKVSNKGLPAPIEKTISKTKGQPREPQVYTLPPSREEMTKNQVSLTCLVKGFYPSDIAVEWESNGQPENNYKTTPPMLDSDGSFFLYSKLTVDKSRWQQGNVFSCSVMHEALHNHYTQKSLSLSPG
light: DIQMTQFPSSLSASVGDRVTITCRASQGIRNDLGWYQQKPGKAPKRLIYAASRLHRGVPSRFSGSGSGTEFTLTISSLQPEDFATYYCLQHNSYPCSFGQGTKLEIKRTVAAPSVFIFPPSDEQLKSGTASVVCLLNNFYPREAKVQWKVDNALQSGNSQESVTEQDSKDSTYSLSSTLTLSKADYEKHKVYACEVTHQGLSSPVTKSFNRGEC
In the case of B1, under “lung cancer, Figitumumab in combination with one chemotherapy regimen versus carboplatin or paclitaxel chemotherapy alone”, the “serious adverse events and deaths” value is recorded as 21%. Also, the survival result (Figitumumab combined with established chemotherapy regimens (carboplatin and paclitaxel)) is recorded as “failed to improve survival”.
